# In patent publication US20030118612A1 (MAXYGEN, published 2003):
# T1: human G-CSF receptor (human, UniProt Q99062 25-836)
# T1 sequence (looked up): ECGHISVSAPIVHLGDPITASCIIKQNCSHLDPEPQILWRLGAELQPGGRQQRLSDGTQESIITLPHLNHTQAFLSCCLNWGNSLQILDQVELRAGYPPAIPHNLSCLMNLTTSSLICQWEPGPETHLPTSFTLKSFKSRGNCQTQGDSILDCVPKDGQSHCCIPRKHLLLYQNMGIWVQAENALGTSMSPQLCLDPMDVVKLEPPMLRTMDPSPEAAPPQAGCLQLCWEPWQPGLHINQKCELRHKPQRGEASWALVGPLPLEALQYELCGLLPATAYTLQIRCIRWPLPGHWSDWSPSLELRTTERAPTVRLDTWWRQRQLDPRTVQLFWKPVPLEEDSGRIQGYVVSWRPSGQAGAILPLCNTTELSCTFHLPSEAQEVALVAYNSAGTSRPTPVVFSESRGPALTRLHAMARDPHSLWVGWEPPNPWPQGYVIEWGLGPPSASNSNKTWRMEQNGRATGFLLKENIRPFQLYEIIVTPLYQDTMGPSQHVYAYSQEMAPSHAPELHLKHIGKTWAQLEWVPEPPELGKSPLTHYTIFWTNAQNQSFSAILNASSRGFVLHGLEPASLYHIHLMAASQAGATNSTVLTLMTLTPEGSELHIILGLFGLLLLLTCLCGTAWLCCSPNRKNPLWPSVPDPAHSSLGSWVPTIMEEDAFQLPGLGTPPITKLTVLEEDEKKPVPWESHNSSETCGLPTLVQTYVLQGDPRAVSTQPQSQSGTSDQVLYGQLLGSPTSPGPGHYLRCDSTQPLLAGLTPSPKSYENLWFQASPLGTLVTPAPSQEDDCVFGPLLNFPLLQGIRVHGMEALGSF
# Biological target: T1, human G-CSF receptor
# Test: cell-based or functional assay
Binder,EC50 (% of hG-CSF) non-conjugated,EC50 (% of hG-CSF) conjugated to SPA-PEG 5000
"G-CSF with N-terminal Histidine tag, non-conjugated (ligand) MKHQHQHQHQHQHQQTPLGPASSLPQSFLLKCLEQVRKIQGDGAALQEKLCATYKLCHPEELVLLGHSLGIPWAPLSSCPSQALQLAGCLSQLHSGLFLYQGLLQALEGISPELGPTLDTLQLDVADFATTIWQQMEELGMAPALQPTQGAMPAFASAFQRRAGGVLVASHLQSFLEVSYRVLRHLAQP",10 % of hG-CSF,
"G-CSF variant 23R conjugated to SPA-PEG 5000 (ligand, SPA-PEG 5000 conjugated to the available PEGylation sites) TPLGPASSLPQSFLLKCLEQVRRIQGDGAALQEKLCATYKLCHPEELVLLGHSLGIPWAPLSSCPSQALQLAGCLSQLHSGLFLYQGLLQALEGISPELGPTLDTLQLDVADFATTIWQQMEELGMAPALQPTQGAMPAFASAFQRRAGGVLVASHLQSFLEVSYRVLRHLAQP",,0.1 % of hG-CSF
"G-CSF variant K16/23Q conjugated to SPA-PEG 5000 (ligand, SPA-PEG 5000 conjugated to the available PEGylation sites) TPLGPASSLPQSFLLQCLEQVRQIQGDGAALQEKLCATYKLCHPEELVLLGHSLGIPWAPLSSCPSQALQLAGCLSQLHSGLFLYQGLLQALEGISPELGPTLDTLQLDVADFATTIWQQMEELGMAPALQPTQGAMPAFASAFQRRAGGVLVASHLQSFLEVSYRVLRHLAQP",,1 % of hG-CSF
"G-CSF variant K16/34/40R Q120K T133K S142K, non-conjugated (ligand) TPLGPASSLPQSFLLRCLEQVRKIQGDGAALQERLCATYRLCHPEELVLLGHSLGIPWAPLSSCPSQALQLAGCLSQLHSGLFLYQGLLQALEGISPELGPTLDTLQLDVADFATTIWQKMEELGMAPALQPKQGAMPAFAKAFQRRAGGVLVASHLQSFLEVSYRVLRHLAQP",10 % of hG-CSF,
"G-CSF variant K16/23R conjugated to SPA-PEG 5000 (ligand, SPA-PEG 5000 conjugated to the available PEGylation sites) TPLGPASSLPQSFLLRCLEQVRRIQGDGAALQEKLCATYKLCHPEELVLLGHSLGIPWAPLSSCPSQALQLAGCLSQLHSGLFLYQGLLQALEGISPELGPTLDTLQLDVADFATTIWQQMEELGMAPALQPTQGAMPAFASAFQRRAGGVLVASHLQSFLEVSYRVLRHLAQP",,1 % of hG-CSF
"G-CSF variant 40R, non-conjugated (ligand) TPLGPASSLPQSFLLKCLEQVRKIQGDGAALQEKLCATYRLCHPEELVLLGHSLGIPWAPLSSCPSQALQLAGCLSQLHSGLFLYQGLLQALEGISPELGPTLDTLQLDVADFATTIWQQMEELGMAPALQPTQGAMPAFASAFQRRAGGVLVASHLQSFLEVSYRVLRHLAQP",50 % of hG-CSF,
"G-CSF variant 40R conjugated to SPA-PEG 5000 (ligand, SPA-PEG 5000 conjugated to the available PEGylation sites) TPLGPASSLPQSFLLKCLEQVRKIQGDGAALQEKLCATYRLCHPEELVLLGHSLGIPWAPLSSCPSQALQLAGCLSQLHSGLFLYQGLLQALEGISPELGPTLDTLQLDVADFATTIWQQMEELGMAPALQPTQGAMPAFASAFQRRAGGVLVASHLQSFLEVSYRVLRHLAQP",,1 % of hG-CSF
"G-CSF variant K16/23R, non-conjugated (ligand) TPLGPASSLPQSFLLRCLEQVRRIQGDGAALQEKLCATYKLCHPEELVLLGHSLGIPWAPLSSCPSQALQLAGCLSQLHSGLFLYQGLLQALEGISPELGPTLDTLQLDVADFATTIWQQMEELGMAPALQPTQGAMPAFASAFQRRAGGVLVASHLQSFLEVSYRVLRHLAQP",100 % of hG-CSF,
"G-CSF variant 34Q, non-conjugated (ligand) TPLGPASSLPQSFLLKCLEQVRKIQGDGAALQEQLCATYKLCHPEELVLLGHSLGIPWAPLSSCPSQALQLAGCLSQLHSGLFLYQGLLQALEGISPELGPTLDTLQLDVADFATTIWQQMEELGMAPALQPTQGAMPAFASAFQRRAGGVLVASHLQSFLEVSYRVLRHLAQP",70 % of hG-CSF,
"G-CSF variant 34R conjugated to SPA-PEG 5000 (ligand, SPA-PEG 5000 conjugated to the available PEGylation sites) TPLGPASSLPQSFLLKCLEQVRKIQGDGAALQERLCATYKLCHPEELVLLGHSLGIPWAPLSSCPSQALQLAGCLSQLHSGLFLYQGLLQALEGISPELGPTLDTLQLDVADFATTIWQQMEELGMAPALQPTQGAMPAFASAFQRRAGGVLVASHLQSFLEVSYRVLRHLAQP",,1 % of hG-CSF
"G-CSF variant 34A, non-conjugated (ligand) TPLGPASSLPQSFLLKCLEQVRKIQGDGAALQEALCATYKLCHPEELVLLGHSLGIPWAPLSSCPSQALQLAGCLSQLHSGLFLYQGLLQALEGISPELGPTLDTLQLDVADFATTIWQQMEELGMAPALQPTQGAMPAFASAFQRRAGGVLVASHLQSFLEVSYRVLRHLAQP",80 % of hG-CSF,
"G-CSF variant 34A conjugated to SPA-PEG 5000 (ligand, SPA-PEG 5000 conjugated to the available PEGylation sites) TPLGPASSLPQSFLLKCLEQVRKIQGDGAALQEALCATYKLCHPEELVLLGHSLGIPWAPLSSCPSQALQLAGCLSQLHSGLFLYQGLLQALEGISPELGPTLDTLQLDVADFATTIWQQMEELGMAPALQPTQGAMPAFASAFQRRAGGVLVASHLQSFLEVSYRVLRHLAQP",,1 % of hG-CSF
"G-CSF variant 34R, non-conjugated (ligand) TPLGPASSLPQSFLLKCLEQVRKIQGDGAALQERLCATYKLCHPEELVLLGHSLGIPWAPLSSCPSQALQLAGCLSQLHSGLFLYQGLLQALEGISPELGPTLDTLQLDVADFATTIWQQMEELGMAPALQPTQGAMPAFASAFQRRAGGVLVASHLQSFLEVSYRVLRHLAQP",100 % of hG-CSF,
"G-CSF variant K34/40R, non-conjugated (ligand) TPLGPASSLPQSFLLKCLEQVRKIQGDGAALQERLCATYRLCHPEELVLLGHSLGIPWAPLSSCPSQALQLAGCLSQLHSGLFLYQGLLQALEGISPELGPTLDTLQLDVADFATTIWQQMEELGMAPALQPTQGAMPAFASAFQRRAGGVLVASHLQSFLEVSYRVLRHLAQP",50 % of hG-CSF,
"G-CSF variant K16/23Q, non-conjugated (ligand) TPLGPASSLPQSFLLQCLEQVRQIQGDGAALQEKLCATYKLCHPEELVLLGHSLGIPWAPLSSCPSQALQLAGCLSQLHSGLFLYQGLLQALEGISPELGPTLDTLQLDVADFATTIWQQMEELGMAPALQPTQGAMPAFASAFQRRAGGVLVASHLQSFLEVSYRVLRHLAQP",80 % of hG-CSF,
"G-CSF variant K16/34/40R T105K Q120K T133K conjugated to SPA-PEG 5000 (ligand, SPA-PEG 5000 conjugated to the available PEGylation sites) TPLGPASSLPQSFLLRCLEQVRKIQGDGAALQERLCATYRLCHPEELVLLGHSLGIPWAPLSSCPSQALQLAGCLSQLHSGLFLYQGLLQALEGISPELGPTLDKLQLDVADFATTIWQKMEELGMAPALQPKQGAMPAFASAFQRRAGGVLVASHLQSFLEVSYRVLRHLAQP",,1 % of hG-CSF
"G-CSF variant K16/34/40R Q120K T133K S142K conjugated to SPA-PEG 5000 (ligand, SPA-PEG 5000 conjugated to the available PEGylation sites) TPLGPASSLPQSFLLRCLEQVRKIQGDGAALQERLCATYRLCHPEELVLLGHSLGIPWAPLSSCPSQALQLAGCLSQLHSGLFLYQGLLQALEGISPELGPTLDTLQLDVADFATTIWQKMEELGMAPALQPKQGAMPAFAKAFQRRAGGVLVASHLQSFLEVSYRVLRHLAQP",,1 % of hG-CSF
"G-CSF variant 34Q conjugated to SPA-PEG 5000 (ligand, SPA-PEG 5000 conjugated to the available PEGylation sites) TPLGPASSLPQSFLLKCLEQVRKIQGDGAALQEQLCATYKLCHPEELVLLGHSLGIPWAPLSSCPSQALQLAGCLSQLHSGLFLYQGLLQALEGISPELGPTLDTLQLDVADFATTIWQQMEELGMAPALQPTQGAMPAFASAFQRRAGGVLVASHLQSFLEVSYRVLRHLAQP",,1 % of hG-CSF
